Values belong to the binder of their own block, whether it stands above or below them.
Key:
Human IL-33-his [1] = molecular target: T1, Human IL-33-his (human, UniProt O95760 112-270, biotinylated with EZ-Link NHS-Biotin where used as IL-33-his-biotin); experiment: cell-based or functional assay
T1 sequence: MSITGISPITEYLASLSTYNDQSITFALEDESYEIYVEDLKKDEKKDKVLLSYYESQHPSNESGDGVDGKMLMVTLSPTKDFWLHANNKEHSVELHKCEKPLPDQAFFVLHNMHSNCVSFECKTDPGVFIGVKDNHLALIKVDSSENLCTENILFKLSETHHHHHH

Human IL-33-his [2] = molecular target: T1, Human IL-33-his; experiment: ELISA as Example 9, IL-33-his-biotin on streptavidin plate
Human IL-33-his [3] = molecular target: T1, Human IL-33-his; experiment: competition ELISA as Example 10, ST2-Fc on plate; competitor ST2-Fc
Method: (§1) ST2-Fc protein was diluted to 1 μg/mL with ELISA coating solution to coat ELISA plate with 100 μL/well. The plate was placed in a wet box at 4° C. for 16 h for coating. The ELISA plate was washed 3 times with PBST, and then was blocked with 2% BSA prepared in PBS at 200 μL/well at room temperature for 2 h. The plate was washed once with PBST, and was patted dry to remove the excess blocking solution. Each monoclonal antibody was diluted with 1% BSA prepared in PBST in a 3-fold gradient. The highest concentration of antibody was 10 μg/mL, and the antibody was diluted for 11 gradients. The diluted antibody was mixed 1:1 with 10 ng/ml IL-33-his-biotin, and then the mixture was added into the ELISA well at 100 μL/well. The plate was incubated at room temperature for 1 h. Each concentration was added to duplicate wells in parallel (maximum final concentration of antibody was […], final concentration of IL-33-his-biotin was 5 ng/mL). Unbound or non-specifically bound primary antibodies were washed out. According to the instructions of the antibody, HRP labeled streptavidin secondary antibody was diluted to an appropriate concentration with antibody diluent solution, then it was added to ELISA plate with 100 μL/well, and was incubated at room temperature for 1 h. The ELISA plate was washed with PBST for 5 times, and was patted dry on absorbent paper to remove excess liquid. TMB developing solution was added with 100 μL/well for development to an appropriate degree. 2M H₂SO₄ was added with 70 μL/well to terminate development, and the absorbance was measured at 450 nm on a multifunctional microplate reader. The data were analyzed.
The blocking effect of the above humanized antibodies on the binding of IL-33 to its receptor ST2 was determined by the ELISA method, and the relevant experimental methods were referred to Example 10.

Human IL-33-his [4] = molecular target: T1, Human IL-33-his; experiment: SPR Biacore 8K as Example 14, antibody captured, antigen as analyte
Method: (§2) A chip with covalently coupled Protein A/G (purchased from GE Healthcare, catalog number BR-1005-30) was used to capture each antibody to be tested, and the relevant operating parameters were as follows: The antibody concentration was […], the contact time was 75 s, the flow rate was […], and the regeneration contact time was 30 s. The IL-33-his antigen was diluted with HBS-EP pH7.4 buffer solution (purchased from GE Healthcare, catalog number BR-1006-69). The maximum concentration was 50 nM, and diluted to 0.39 nM by two-fold dilution. Duplicate wells and 0 concentration point well were set, and 6M guanidine hydrochloride solution was used as the regeneration buffer. The sample was injected on Biacore 8K according to the following parameters, the binding time was 180 s, the dissociation time was 900 s, the flow rate was 30 μL/min, and the regeneration contact time was 30 s. After running, Biacore 8K Evaluation Software was used to analyze the data according to the “1:1 binding kinetics model”, and the binding kinetics parameters of each antibody to IL-33 were obtained.
(§3) The experimental methods were referred to Example 14, in which the antigens cynomolgus IL-33 protein (purchased from Sino catalog number 90912-CNAE) and mouse IL-33 protein (purchased from R&D, 3626-ML-010/CF) were used, and human IL-33 protein was used as the control. Both 864F3-Hu4 and 874F7-Hu1 cross-react with cynomolgus IL-33 protein, and are consistent with the characteristics of each antibody binding to human IL-33 protein.

Cynomolgus IL-33-his = molecular target: T2, Cynomolgus IL-33-his (cynomolgus, UniProt A0A2K5W3I1 112-269, biotinylated in the ELISA of Example 6); experiment: as above
T2 construct: Bought protein; also called cynomolgus IL-33 protein; Cynomolgus monkeys IL-33
T2 sequence: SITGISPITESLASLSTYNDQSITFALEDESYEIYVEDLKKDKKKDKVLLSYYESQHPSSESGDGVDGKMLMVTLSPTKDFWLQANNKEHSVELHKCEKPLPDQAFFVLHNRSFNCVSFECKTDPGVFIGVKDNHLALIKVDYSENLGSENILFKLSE
Method: as §2, §3

Mouse IL-33 protein = molecular target: T3, Mouse IL-33 protein (mouse, UniProt Q8BVZ5 109-266); experiment: as above
T3 construct: Bought protein
T3 sequence (looked up): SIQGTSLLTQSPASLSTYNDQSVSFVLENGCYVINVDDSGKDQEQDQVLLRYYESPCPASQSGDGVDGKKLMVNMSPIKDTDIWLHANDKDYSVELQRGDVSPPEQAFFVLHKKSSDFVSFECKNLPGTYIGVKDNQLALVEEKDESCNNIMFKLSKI
Method: as §2, §3

Human IL-33-his [5] = molecular target: T1, Human IL-33-his; experiment: SPR Biacore 8K, antibody captured on Protein A/G chip, IL-33-his as analyte, 1:1 model
Method: as §2

Human IL-33-his [6] = molecular target: T1, Human IL-33-his; experiment: SPR Biacore 8K as Example 14, antibody captured, antigen as analyte; human IL-33 as the control in the cross-reactivity run of Table 3
Method: as §2
The experimental methods were referred to Example 14, in which the antigens cynomolgus IL-33 protein (purchased from Sino catalog number 90912-CNAE) and mouse IL-33 protein (purchased from R&D, 3626-ML-010/CF) were used, and human IL-33 protein was used as the control. […]

Human IL-33-his [7] = molecular target: T1, Human IL-33-his; experiment: ELISA, IL-33-his-biotin on streptavidin plate, anti-human Fc detection
Method: (§4) SA protein was diluted to 2 μg/mL to coat ELISA plate at 100 μL/well overnight at 4° C. The plate was washed with PBST (PBS containing 0.05% Tween20) for 3 times, and blocked with 2% BSA prepared in PBS at 200 μL/well, at room temperature for 2 h. After the plate was washed twice with PBST, IL-33-his-biotin protein was diluted to 1 μg/mL with 1% BSA prepared in PBST, and was added to ELISA plate at 100 μL/well. The plate was incubated at room temperature for 1 h, and each monoclonal antibody was diluted with 1% BSA prepared in PBST in a 3-fold gradient. The highest concentration of antibody was 10 μg/mL, and the antibody was diluted for 12 gradients. Each diluted monoclonal antibody was added to ELISA wells with 100 μL/well, and the plate was incubated at room temperature for 1 h. Each sample was added to duplicate wells in parallel. The plate was washed with PBST for 3 times, and HRP-anti human IgG Fc secondary antibody prepared with PBST was diluted at an appropriate ratio, and was added to ELISA wells at 100 μL/well. The plate was incubated at room temperature for 1 h. After washing with PBST for 3 times, TMB developing solution was added at 100 μL/well. When the development met expectations, 2M H₂SO₄ was added to terminate the chromogenic reaction at 70 μL/well. Each reaction solution was shaken uniformly and OD450 nm was read on a microplate reader. The data was analyzed and EC₅₀ was calculated.

Human IL-33-his [8] = molecular target: T1, Human IL-33-his; experiment: ELISA as Example 9, IL-33-his-biotin on streptavidin plate; run with Hu3, Hu4, Hu5
Method: as §4, with “When the development met expectations, 2M H₂SO₄ was added to terminate the chromogenic reaction at 70 μL/well.” left out

Human IL-33-his [9] = molecular target: T1, Human IL-33-his; experiment: ELISA as Example 9, IL-33-his-biotin on streptavidin plate; run with HuG, Hu1, Hu2
Method: as §4, with “When the development met expectations, 2M H₂SO₄ was added to terminate the chromogenic reaction at 70 μL/well.” left out

Human IL-33-his [10] = molecular target: T1, Human IL-33-his; experiment: competition ELISA, antibody mixed with IL-33-his-biotin, ST2-Fc on plate; competitor ST2-Fc
Method: as §1

IC50 of inhibition of IFNγ secretion by NK cells induced by IL-33 (Human IL-33-his [1]): 0.904 nM | IC50 of inhibition of IL-5 secretion of KU812 cells induced by IL-33 (Human IL-33-his [1]): 27.6 nM | IC50 of inhibition of IL-13 secretion of KU812 cells induced by IL-33 (Human IL-33-his [1]): 14.7 nM | IC50 of the inhibitory effect on IL-6 expression in HUVEC cells induced by IL-33 (Human IL-33-his [1]): 0.073 nM | IC50 of the inhibitory effect on the IFN-γ secretion of PBMC induced by IL-33 (Human IL-33-his [1]): 1.22 nM | EC50 (Human IL-33-his [2]): 0.135 nM | IC50 (Human IL-33-his [3]): 0.512 nM | koff (Human IL-33-his [4]): 0.000149 s⁻¹ | kon (Human IL-33-his [4]): 270000 M⁻¹ s⁻¹ | Kd (Cynomolgus IL-33-his): 0.637 nM | koff (Cynomolgus IL-33-his): 0.000245 s⁻¹ | kon (Cynomolgus IL-33-his): 385000 M⁻¹ s⁻¹ | Kd (Mouse IL-33 protein): 190 nM | koff (Mouse IL-33 protein): 0.0205 s⁻¹ | kon (Mouse IL-33 protein): 108000 M⁻¹ s⁻¹ | Kd (Human IL-33-his [5]): 1.38 nM | koff (Human IL-33-his [5]): 0.000447 s⁻¹ | kon (Human IL-33-his [5]): 323000 M⁻¹ s⁻¹ | Kd (Human IL-33-his [6]): 0.552 nM
B1: 864F3-Hu4 (antibody, human IgG4 S228P, kappa, V domains shown)
VH: QVQLQESGPGLVKPSETLSLTCTVSGFSLSKYGVHWIRQPPGKGLEWIGVLRAGGTISYNSALMSRVTISEDISKSQVSLKLSSVTAADTAVYYCARDHYYYSSFGGFASWGQGTLVTVSS
VL: DIQMTQSPSSLSASVGDRVTITCLASQTIATWLAWYQQKPGKSPKLLIYAATRLADGVPSRFSGSGSGTDFTLTISSLQPEDFATYYCQQLYNTPYTFGQGTKVEIKR
notes: Humanized; also called humanized antibody 864F3-Hu4

EC50 (Human IL-33-his [7]): 0.173 nM | EC50 (Human IL-33-his [8]): 0.124 nM | EC50 (Human IL-33-his [9]): 0.169 nM | IC50 (Human IL-33-his [10]): 0.58 nM
B2: 864F3-ch2 (antibody, human IgG4 S228P, kappa, V domains shown)
VH: QVHLKESGPGLVAPSQSLSITCNVSGFSLSKYGVHWIRQTPGRGLDWLGVLRAGGTISYNSALMSRLSISEDISKSQVFLKMNDLQTDDSAIYFCARDHYYYSSFGGFASWGQGTLVTVSA
VL: DIQMTQSPASQSASLGESVTITCLASQTIATWLAWYQQKPGKSPQLLIYAATRLADGVPSRFSGSGSGTEFSFKISSLQAEDFVIYYCQQLYNTPYTFGGGTKLEIKR
notes: Chimeric: human IgG4 (S228P) and human kappa constant regions; also called chimeric antibody 864F3-ch2

From patent publication US20230399394A1 (SUNSHINE GUOJIAN PHARMACEUTICAL SHANGHAI, published 2023)
